Test results from US20140112926A1.

What was measured:
[1] = molecular target: GST-tagged version of human FcγRIIIA (human) (UniProt P08637); assay: AlphaLISA vs biotin-huIgG, supernatant, round 1
[2] = molecular target: GST-tagged version of human FcγRIIIA (human) (UniProt P08637); assay: AlphaLISA vs biotin-huIgG, supernatant, round 2
[3] = molecular target: GST-tagged version of human FcγRIIIA (human) (UniProt P08637); assay: AlphaLISA vs biotin-huIgG, supernatant, round 3

GST-tagged version of human FcγRIIIA (human), sequence (P08637 17-208 limits assumed): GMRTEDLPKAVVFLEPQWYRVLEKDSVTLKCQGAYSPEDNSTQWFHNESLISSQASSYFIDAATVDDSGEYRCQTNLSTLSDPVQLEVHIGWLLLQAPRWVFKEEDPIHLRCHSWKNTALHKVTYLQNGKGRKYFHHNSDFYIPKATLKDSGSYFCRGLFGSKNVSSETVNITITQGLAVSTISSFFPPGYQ

% inhibition [1] [%]	Alpha signal [1]	% inhibition [2] [%]	Alpha signal [2]	% inhibition [3] [%]	Alpha signal [3]	Substance
25.8	56400	32.7	54100	25.6	58400	scFv-Fc/Fc, A330V in dummy Fc (Fc fusion)
82.7	13100	86.2	11100	87.5	9800	scFv-Fc/Fc, Q311M in dummy Fc (Fc fusion)
15	64600	23.2	61700	20.9	62200	scFv-Fc/Fc, G236Y in scFv-Fc (Fc fusion)
39.4	–	28.6	57400	29.7	55200	scFv-Fc/Fc, F243L in scFv-Fc (Fc fusion)
47.5	39900	58.4	33500	67.6	25500	scFv-Fc/Fc, A287F in scFv-Fc (from UniProt P0DOX5 218-449; P0DOX5 218-449) (Fc fusion)
45.1	41700	47.7	42100	48.6	40400	scFv-Fc/Fc, F243V in scFv-Fc (Fc fusion)
21.9	59300	38	49800	22.3	61000	scFv-Fc/Fc, R255S in dummy Fc (Fc fusion)
76.5	17900	68.5	25300	65	27500	scFv-Fc/Fc, S298A in scFv-Fc (Fc fusion)
71.5	21700	76.4	18900	67.2	25800	scFv-Fc/Fc, T307E in scFv-Fc (Fc fusion)
–	32500	–	34800	–	33700	scFv-Fc/Fc, S239E in dummy Fc (Fc fusion)
73	20600	75	20100	51	–	scFv-Fc/Fc, K290G in dummy Fc (Fc fusion)
24.5	57400	35.2	52100	34.7	51300	scFv-Fc/Fc, I253K in scFv-Fc (Fc fusion)
68.7	23800	–	19700	63.6	28600	scFv-Fc/Fc, N315A in scFv-Fc (Fc fusion)
23	58500	23.5	61500	25.7	58400	scFv-Fc/Fc, I253V in dummy Fc (Fc fusion)
24.8	57100	–	55900	–	54600	scFv-Fc/Fc, K290S in scFv-Fc (from UniProt P0DOX5 218-449; P0DOX5 218-449) (Fc fusion)
31.5	52100	36.5	51000	40.2	47000	scFv-Fc/Fc, K248Y in dummy Fc (Fc fusion)
0	76000	0	80400	0	78600	scFv-Fc/Fc, no substitution (charge pair mutations only) (Fc fusion)
69.2	23400	76.5	18900	65.4	27200	scFv-Fc/Fc, L309K in scFv-Fc (Fc fusion)
40.6	45100	47.3	42400	51.8	37900	scFv-Fc/Fc, K246S in dummy Fc (Fc fusion)
67	–	73.7	21100	67.6	–	scFv-Fc/Fc, L309E in scFv-Fc (Fc fusion)
23.1	58500	24.7	60600	18.2	64300	scFv-Fc/Fc, Y296L in scFv-Fc (Fc fusion)
23.1	58500	31.1	55400	23.5	60100	scFv-Fc/Fc, K290F in dummy Fc (Fc fusion)

% inhibition [1] [%]	Alpha signal [1]	% inhibition [2] [%]	Alpha signal [2]	% inhibition [3] [%]	Alpha signal [3]	Substance
–	24300	–	22900	76.8	18200	scFv-Fc/Fc, E294L in scFv-Fc (Fc fusion)
–	22300	75.4	19800	–	24400	scFv-Fc/Fc, K334M in scFv-Fc (Fc fusion)
69.3	23300	75.8	19500	71.5	22400	scFv-Fc/Fc, E258V in scFv-Fc (from UniProt P0DOX5 218-449; P0DOX5 218-449) (Fc fusion)
89.8	7790	92.2	6260	91.1	7020	scFv-Fc/Fc, L235S in scFv-Fc (Fc fusion)
27.5	55100	42.9	45900	35.7	50500	scFv-Fc/Fc, L234Y in scFv-Fc (Fc fusion)
25.8	56400	–	57500	–	57300	scFv-Fc/Fc, K288I in scFv-Fc (from UniProt P0DOX5 218-449; P0DOX5 218-449) (Fc fusion)
20	60800	29	57100	34.2	51700	scFv-Fc/Fc, K246W in dummy Fc (Fc fusion)
91.9	6120	92.3	6160	87.4	9870	scFv-Fc/Fc, S239D in dummy Fc (Fc fusion)
84	12200	87.1	10400	82.9	13400	scFv-Fc/Fc, S298C in scFv-Fc (Fc fusion)
72.9	20600	77.4	18200	76.1	18800	scFv-Fc/Fc, F243L in dummy Fc (Fc fusion)
67.5	24700	71.3	23100	68.4	24800	scFv-Fc/Fc, K248L in dummy Fc (Fc fusion)
47	40300	55.3	35900	57.4	33400	scFv-Fc/Fc, V302Q in dummy Fc (Fc fusion)
–	24300	79	16900	–	21400	scFv-Fc/Fc, S239D in scFv-Fc (Fc fusion)
84.9	11500	85.4	11800	66.7	26100	scFv-Fc/Fc, S239E + K340N in dummy Fc (Fc fusion)
58	31900	67.5	26100	68.8	24500	scFv-Fc/Fc, S239N in scFv-Fc (Fc fusion)
60.6	30000	73.1	21700	72.8	21400	scFv-Fc/Fc, F243I in scFv-Fc (Fc fusion)
65.1	26500	76.3	19100	73.5	20800	scFv-Fc/Fc, T256Q in scFv-Fc (from UniProt P0DOX5 218-449; P0DOX5 218-449) (Fc fusion)
84.8	11600	83	13700	84.1	12500	scFv-Fc/Fc, F243V + S239T in dummy Fc (Fc fusion)
37.4	47500	39.6	48500	43.3	44500	scFv-Fc/Fc, R255N in dummy Fc (Fc fusion)
20.4	60500	27.8	58100	23.3	60300	scFv-Fc/Fc, M252D in dummy Fc (Fc fusion)
32	51700	31.9	54800	28.2	56500	scFv-Fc/Fc, K334A in scFv-Fc (Fc fusion)
21.4	59700	30.8	55600	21.4	61800	scFv-Fc/Fc, L309C in dummy Fc (Fc fusion)
